# Data published in patent US20170355766A1 (Xencor, published 2017).
# Positions count from the first letter of the chain named. Names and notes keep the numbering of the source.
# T1: human FcγRIIb on the cell surface (HEK293T cells transfected with human FcγRIIb cDNA; primary human B cells) (human, UniProt P31994 43-310)
# T1 chain: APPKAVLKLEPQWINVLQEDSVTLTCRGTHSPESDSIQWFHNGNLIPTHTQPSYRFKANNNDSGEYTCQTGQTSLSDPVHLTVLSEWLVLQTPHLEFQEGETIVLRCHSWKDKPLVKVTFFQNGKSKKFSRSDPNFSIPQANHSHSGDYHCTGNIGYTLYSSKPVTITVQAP
# T2: human H131 FcγRIIa receptor protein (6xHis and GST tags) (human, UniProt P12318 34-217, limits assumed)
# T2 construct: also called HIIa
# T2 sequence (looked up): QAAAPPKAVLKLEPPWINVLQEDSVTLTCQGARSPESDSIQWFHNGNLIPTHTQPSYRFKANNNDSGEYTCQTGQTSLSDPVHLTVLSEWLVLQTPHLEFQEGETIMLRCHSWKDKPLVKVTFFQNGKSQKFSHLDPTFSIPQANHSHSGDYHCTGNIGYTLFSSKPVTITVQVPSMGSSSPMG
# T3: FcγRIIaR (human, UniProt P12318)
# T3 construct: recombinant receptor protein with 6xHis and GST tags; also called R131 FcγRIIa
# T3 sequence (receptor, looked up): T2 sequence (looked up) with H134R
# T4: human FcγRIIb receptor protein (R&D Systems) (human, UniProt P31994 46-217)
# T4 construct: Analyte injected over antibodies captured on a protein A/G chip (Biacore); also called CD32b
# T4 sequence (looked up): T1 chain
# B1: anti-CD19 antibody HuAM4G7 IgG1 Fc variant L235Y/S267E (antibody)
# heavy: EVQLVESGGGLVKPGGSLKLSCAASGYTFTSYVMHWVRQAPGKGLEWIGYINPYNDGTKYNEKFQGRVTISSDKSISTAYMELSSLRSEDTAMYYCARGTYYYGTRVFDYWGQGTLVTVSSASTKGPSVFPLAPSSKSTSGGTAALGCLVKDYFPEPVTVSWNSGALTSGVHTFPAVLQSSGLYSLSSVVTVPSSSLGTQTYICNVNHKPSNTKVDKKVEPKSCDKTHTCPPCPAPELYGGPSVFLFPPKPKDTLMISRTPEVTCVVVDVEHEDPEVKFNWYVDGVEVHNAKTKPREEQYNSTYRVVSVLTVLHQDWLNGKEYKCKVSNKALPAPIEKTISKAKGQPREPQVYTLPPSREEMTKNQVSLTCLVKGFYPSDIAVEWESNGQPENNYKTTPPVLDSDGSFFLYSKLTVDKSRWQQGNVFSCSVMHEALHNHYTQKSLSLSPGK
# light: DIVMTQSPATLSLSPGERATLSCRSSKSLQNVNGNTYLYWFQQKPGQSPQLLIYRMSNLNSGVPDRFSGSGSGTEFTLTISSLEPEDFAVYYCMQHLEYPITFGAGTKLEIKRTVAAPSVFIFPPSDEQLKSGTASVVCLLNNFYPREAKVQWKVDNALQSGNSQESVTEQDSKDSTYSLSSTLTLSKADYEKHKVYACEVTHQGLSSPVTKSFNRGEC
# notes: Positions are EU numbers, not positions on the UniProt entry; copies: 2 + 2
# B2: anti-CD19 antibody HuAM4G7 IgG1 Fc variant S267E (antibody)
# heavy: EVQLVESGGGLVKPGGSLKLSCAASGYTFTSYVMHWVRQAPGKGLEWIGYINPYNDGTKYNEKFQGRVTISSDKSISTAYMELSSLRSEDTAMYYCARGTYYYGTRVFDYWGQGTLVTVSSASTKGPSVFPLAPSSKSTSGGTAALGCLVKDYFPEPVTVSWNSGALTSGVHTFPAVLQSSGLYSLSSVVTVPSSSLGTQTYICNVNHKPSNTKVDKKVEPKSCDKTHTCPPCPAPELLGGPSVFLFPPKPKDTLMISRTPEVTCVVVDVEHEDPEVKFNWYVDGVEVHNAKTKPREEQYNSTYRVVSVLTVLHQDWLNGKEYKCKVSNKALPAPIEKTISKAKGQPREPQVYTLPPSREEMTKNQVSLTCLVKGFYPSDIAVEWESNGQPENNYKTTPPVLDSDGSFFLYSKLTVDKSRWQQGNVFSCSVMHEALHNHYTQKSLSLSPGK
# light: B1 light
# notes: as for B1
# B3: anti-CD19 WT IgG1 antibody (HuAM4G7 Fv, native human IgG1 Fc) (antibody)
# heavy: not shown
# light: B1 light
# notes: Parent of the Fc variants; also called anti-CD19-IgG1; anti-CD19 IgG1 WT; copies: 2 + 2
# B4: ^236R/L328R (antibody, human IgG1, kappa)
# heavy: EVQLVESGGGLVKPGGSLKLSCAASGYTFTSYVMHWVRQAPGKGLEWIGYINPYNDGTKYNEKFQGRVTISSDKSISTAYMELSSLRSEDTAMYYCARGTYYYGTRVFDYWGQGTLVTVSSASTKGPSVFPLAPSSKSTSGGTAALGCLVKDYFPEPVTVSWNSGALTSGVHTFPAVLQSSGLYSLSSVVTVPSSSLGTQTYICNVNHKPSNTKVDKKVEPKSCDKTHTCPPCPAPELLGRGPSVFLFPPKPKDTLMISRTPEVTCVVVDVSHEDPEVKFNWYVDGVEVHNAKTKPREEQYNSTYRVVSVLTVLHQDWLNGKEYKCKVSNKARPAPIEKTISKAKGQPREPQVYTLPPSREEMTKNQVSLTCLVKGFYPSDIAVEWESNGQPENNYKTTPPVLDSDGSFFLYSKLTVDKSRWQQGNVFSCSVMHEALHNHYTQKSLSLSPGK
# light: B1 light
# notes: HuAM4G7 IgG1 Fc variant; also called Fc-KO; FcγR knockout
# B5: anti-CD19 antibody HuAM4G7 IgG1 Fc variant S267E/H268E (antibody)
# heavy: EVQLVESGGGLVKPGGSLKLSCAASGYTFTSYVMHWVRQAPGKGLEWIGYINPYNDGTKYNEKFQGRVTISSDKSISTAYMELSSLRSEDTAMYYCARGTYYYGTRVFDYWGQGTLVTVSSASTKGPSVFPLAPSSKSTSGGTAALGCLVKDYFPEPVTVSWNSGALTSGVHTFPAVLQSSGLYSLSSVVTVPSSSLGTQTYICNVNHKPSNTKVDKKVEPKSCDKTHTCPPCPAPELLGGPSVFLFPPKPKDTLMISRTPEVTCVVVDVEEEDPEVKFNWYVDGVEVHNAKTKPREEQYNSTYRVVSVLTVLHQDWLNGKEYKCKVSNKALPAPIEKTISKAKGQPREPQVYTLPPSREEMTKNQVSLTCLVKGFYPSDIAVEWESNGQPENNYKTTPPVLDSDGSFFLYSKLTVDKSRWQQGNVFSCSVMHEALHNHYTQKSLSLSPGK
# light: B1 light
# notes: Positions are EU numbers, not positions on the UniProt entry; also called H268E/S267E; copies: 2 + 2
# B6: G236R/L328R (antibody, human IgG1, kappa)
# heavy: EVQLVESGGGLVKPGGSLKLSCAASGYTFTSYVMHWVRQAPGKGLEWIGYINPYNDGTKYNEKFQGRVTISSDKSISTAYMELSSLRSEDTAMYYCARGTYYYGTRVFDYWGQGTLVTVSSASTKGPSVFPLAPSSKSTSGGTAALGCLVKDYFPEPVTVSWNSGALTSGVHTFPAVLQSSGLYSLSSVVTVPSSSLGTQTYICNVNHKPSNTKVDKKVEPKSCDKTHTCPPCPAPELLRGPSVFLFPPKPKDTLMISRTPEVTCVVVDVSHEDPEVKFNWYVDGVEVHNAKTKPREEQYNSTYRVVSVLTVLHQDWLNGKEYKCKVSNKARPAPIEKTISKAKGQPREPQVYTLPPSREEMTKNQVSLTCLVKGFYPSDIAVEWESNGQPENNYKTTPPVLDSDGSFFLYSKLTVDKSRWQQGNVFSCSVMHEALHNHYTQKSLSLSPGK
# light: B1 light
# notes: as for B4
# B7: G236D (antibody, human IgG1, kappa)
# heavy: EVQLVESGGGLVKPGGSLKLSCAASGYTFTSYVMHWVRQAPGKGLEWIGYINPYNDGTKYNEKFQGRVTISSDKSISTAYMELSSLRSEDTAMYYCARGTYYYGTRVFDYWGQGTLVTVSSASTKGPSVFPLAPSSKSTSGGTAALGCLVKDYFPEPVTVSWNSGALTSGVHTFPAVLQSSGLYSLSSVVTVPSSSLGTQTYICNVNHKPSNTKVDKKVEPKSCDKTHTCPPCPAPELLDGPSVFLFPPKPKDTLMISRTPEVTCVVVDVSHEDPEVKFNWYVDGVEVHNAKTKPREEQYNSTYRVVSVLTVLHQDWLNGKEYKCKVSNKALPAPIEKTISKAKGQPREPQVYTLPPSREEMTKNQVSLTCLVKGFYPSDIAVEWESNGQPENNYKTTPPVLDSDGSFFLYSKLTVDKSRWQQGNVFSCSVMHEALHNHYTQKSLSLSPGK
# light: B1 light
# notes: HuAM4G7 IgG1 Fc variant
# B8: anti-CD19 antibody S267E/L328F (HuAM4G7 Fv, human IgG1 Fc with S267E/L328F) (antibody)
# heavy: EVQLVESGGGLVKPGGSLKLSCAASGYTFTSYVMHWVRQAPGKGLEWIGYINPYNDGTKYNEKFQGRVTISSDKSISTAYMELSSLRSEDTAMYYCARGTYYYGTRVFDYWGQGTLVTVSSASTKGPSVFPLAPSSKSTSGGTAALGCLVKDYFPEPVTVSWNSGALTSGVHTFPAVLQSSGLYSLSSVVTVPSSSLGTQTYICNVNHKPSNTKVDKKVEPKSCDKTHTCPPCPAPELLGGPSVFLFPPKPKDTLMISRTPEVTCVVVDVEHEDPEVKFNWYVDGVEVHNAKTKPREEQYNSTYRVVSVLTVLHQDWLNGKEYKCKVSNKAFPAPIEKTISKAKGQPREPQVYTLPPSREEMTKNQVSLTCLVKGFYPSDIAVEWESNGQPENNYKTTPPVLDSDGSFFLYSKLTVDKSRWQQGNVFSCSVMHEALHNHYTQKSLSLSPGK
# light: B1 light
# notes: They are treated here as one molecule; also called anti-CD19-S267E/L328F; a-CD19 S267E/L328F; copies: 2 + 2
# B9: L235Y/S267E/H268E (antibody, human IgG1, kappa)
# heavy: EVQLVESGGGLVKPGGSLKLSCAASGYTFTSYVMHWVRQAPGKGLEWIGYINPYNDGTKYNEKFQGRVTISSDKSISTAYMELSSLRSEDTAMYYCARGTYYYGTRVFDYWGQGTLVTVSSASTKGPSVFPLAPSSKSTSGGTAALGCLVKDYFPEPVTVSWNSGALTSGVHTFPAVLQSSGLYSLSSVVTVPSSSLGTQTYICNVNHKPSNTKVDKKVEPKSCDKTHTCPPCPAPELYGGPSVFLFPPKPKDTLMISRTPEVTCVVVDVEEEDPEVKFNWYVDGVEVHNAKTKPREEQYNSTYRVVSVLTVLHQDWLNGKEYKCKVSNKALPAPIEKTISKAKGQPREPQVYTLPPSREEMTKNQVSLTCLVKGFYPSDIAVEWESNGQPENNYKTTPPVLDSDGSFFLYSKLTVDKSRWQQGNVFSCSVMHEALHNHYTQKSLSLSPGK
# light: B1 light
# notes: HuAM4G7 IgG1 Fc variant
# B10: L235Y/G236D/S267E (antibody, human IgG1, kappa)
# heavy: B9 heavy with G240D, E272H
# light: B1 light
# notes: HuAM4G7 IgG1 Fc variant
# B11: L235Y/S267E/L328F (antibody, human IgG1, kappa)
# heavy: B9 heavy with E272H, L332F
# light: B1 light
# notes: HuAM4G7 IgG1 Fc variant
# B12: S239D (antibody, human IgG1, kappa)
# heavy: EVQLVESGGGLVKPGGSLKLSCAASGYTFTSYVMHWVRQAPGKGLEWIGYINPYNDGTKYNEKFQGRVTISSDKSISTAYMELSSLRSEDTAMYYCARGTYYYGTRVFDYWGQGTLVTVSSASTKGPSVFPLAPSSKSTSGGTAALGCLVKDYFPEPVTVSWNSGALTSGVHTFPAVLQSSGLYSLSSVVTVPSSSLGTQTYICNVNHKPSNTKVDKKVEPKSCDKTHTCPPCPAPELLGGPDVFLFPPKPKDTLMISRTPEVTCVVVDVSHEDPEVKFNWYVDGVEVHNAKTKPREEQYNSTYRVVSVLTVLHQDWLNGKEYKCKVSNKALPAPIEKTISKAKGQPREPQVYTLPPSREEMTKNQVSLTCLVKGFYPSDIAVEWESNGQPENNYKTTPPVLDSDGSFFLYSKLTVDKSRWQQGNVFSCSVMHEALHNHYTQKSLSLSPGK
# light: B1 light
# notes: HuAM4G7 IgG1 Fc variant
# B13: V266M/S267E (antibody, human IgG1, kappa)
# heavy: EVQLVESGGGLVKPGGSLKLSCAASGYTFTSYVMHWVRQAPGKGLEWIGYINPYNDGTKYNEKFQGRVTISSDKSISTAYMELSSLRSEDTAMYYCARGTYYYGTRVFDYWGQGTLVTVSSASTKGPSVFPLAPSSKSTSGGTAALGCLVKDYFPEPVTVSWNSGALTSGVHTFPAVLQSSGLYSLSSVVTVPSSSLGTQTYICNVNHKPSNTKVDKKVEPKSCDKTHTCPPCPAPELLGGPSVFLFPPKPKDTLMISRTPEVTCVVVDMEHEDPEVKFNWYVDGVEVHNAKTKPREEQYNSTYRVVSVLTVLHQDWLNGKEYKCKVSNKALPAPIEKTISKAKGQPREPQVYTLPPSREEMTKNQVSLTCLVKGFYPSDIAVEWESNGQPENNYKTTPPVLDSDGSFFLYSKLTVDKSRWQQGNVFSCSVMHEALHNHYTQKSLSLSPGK
# light: B1 light
# notes: HuAM4G7 IgG1 Fc variant
# B14: L235Y/S239D/S267E (antibody, human IgG1, kappa)
# heavy: B9 heavy with S243D, E272H
# light: B1 light
# notes: HuAM4G7 IgG1 Fc variant
# B15: S267E/A327E (antibody, human IgG1, kappa)
# heavy: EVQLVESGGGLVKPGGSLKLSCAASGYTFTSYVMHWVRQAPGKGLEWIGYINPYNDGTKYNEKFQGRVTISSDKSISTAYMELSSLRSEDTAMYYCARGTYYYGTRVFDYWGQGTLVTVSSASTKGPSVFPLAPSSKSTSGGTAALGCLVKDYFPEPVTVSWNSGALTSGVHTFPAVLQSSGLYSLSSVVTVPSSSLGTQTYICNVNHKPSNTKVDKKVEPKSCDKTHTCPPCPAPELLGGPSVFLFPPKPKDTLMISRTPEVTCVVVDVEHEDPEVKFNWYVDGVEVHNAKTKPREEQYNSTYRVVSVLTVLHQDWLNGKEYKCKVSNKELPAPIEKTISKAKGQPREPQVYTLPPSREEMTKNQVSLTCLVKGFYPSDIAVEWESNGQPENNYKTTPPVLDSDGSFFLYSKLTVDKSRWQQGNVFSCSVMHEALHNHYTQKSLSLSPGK
# light: B1 light
# notes: HuAM4G7 IgG1 Fc variant
# Target: T1, human FcγRIIb on the cell surface …
# Assay: flow cytometry on FcγRIIb-transfected HEK293T cells
row,Binder,EC50 (read off the curve)
1,B1,~6 ng/mL

# Target: T1, human FcγRIIb on the cell surface …
# Assay: as above
# Remark: another data set of the same source
row,Binder,EC50 (read off the curve)
1,B2,~20 ng/mL

# Target: T5, human V158 FcγRIIIa receptor protein (6xHis and GST tags) (human, UniProt P08637 17-208, limits assumed)
# T5 construct: also called VIIIa
# Assay: SPR (Biacore)
# T5 sequence (P08637 17-208 F176V limits assumed): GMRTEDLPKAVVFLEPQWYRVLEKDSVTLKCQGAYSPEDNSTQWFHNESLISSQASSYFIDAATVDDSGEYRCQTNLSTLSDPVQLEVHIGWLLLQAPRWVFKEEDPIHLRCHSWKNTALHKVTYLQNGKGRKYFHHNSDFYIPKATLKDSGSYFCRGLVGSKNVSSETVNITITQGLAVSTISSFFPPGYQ
Binder,Fold FcγRIIIaV,binding result
B3,1 fold,
B2,0.381 fold,
B4,,no binding
B5,3.15 fold,
B6,,no binding
B7,,no binding
B8,0.038 fold,
B9,0.428 fold,
B10,,no binding
B11,,no binding
B12,8.14 fold,
B13,0.0448 fold,
B14,2.6 fold,

# Target: T6, human FcγRI receptor protein (R&D Systems) (human, UniProt P12314 16-288)
# T6 construct: also called CD64
# Assay: SPR (Biacore)
# T6 sequence (P12314 16-288 limits assumed): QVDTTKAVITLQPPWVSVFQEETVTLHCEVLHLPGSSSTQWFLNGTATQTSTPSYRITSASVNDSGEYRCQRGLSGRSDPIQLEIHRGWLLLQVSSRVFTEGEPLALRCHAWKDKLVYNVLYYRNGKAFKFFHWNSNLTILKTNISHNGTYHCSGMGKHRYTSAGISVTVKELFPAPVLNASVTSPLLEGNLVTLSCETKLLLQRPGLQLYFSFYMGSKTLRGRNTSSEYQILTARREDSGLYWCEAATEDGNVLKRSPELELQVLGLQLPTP
Binder,Fold FcγRI,binding result
B3,1 fold,
B2,2.81 fold,
B4,,no binding
B5,3.52 fold,
B6,,no binding
B7,0.0211 fold,
B8,1.5 fold,
B9,0.0103 fold,
B10,,no binding
B15,2.3 fold,
B11,0.00436 fold,
B12,3.53 fold,
B1,0.00347 fold,
B13,1.98 fold,
B14,1.07 fold,

# Target: T2, human H131 FcγRIIa receptor protein …
# Assay: SPR (Biacore)
Binder,Fold FcγRIIaH,binding result
B3,1 fold,
B4,,no binding
B6,,no binding
B7,0.167 fold,
B9,0.157 fold,
B10,,no binding
B11,0.758 fold,
B12,1.1 fold,
B1,0.941 fold,
B14,1.05 fold,

# Target: T3, FcγRIIaR
# Assay: SPR (Biacore)
Binder,Fold FcγRIIaR,binding result
B3,1 fold,
B2,29.5 fold,
B4,,no binding
B5,41.7 fold,
B6,,no binding
B7,0.758 fold,
B8,275 fold,
B9,48.2 fold,
B10,9.67 fold,
B15,29.3 fold,
B11,171 fold,
B12,3.73 fold,
B1,37.5 fold,
B13,30.7 fold,
B14,98.9 fold,

# Target: T4, human FcγRIIb receptor protein (R&D …)
# Assay: SPR (Biacore)
Binder,Fold FcγRIIb,binding result
B3,1 fold,
B2,20.4 fold,
B4,,no binding
B5,40.6 fold,
B6,,no binding
B7,1.54 fold,
B8,242 fold,
B9,69.9 fold,
B10,25 fold,
B15,30.9 fold,
B11,187 fold,
B12,3.6 fold,
B1,37.2 fold,
B13,29.2 fold,
B14,116 fold,

# Target: T7, FcγRIIIaF (human, UniProt P08637)
# T7 construct: recombinant receptor protein with 6xHis and GST tags; also called F158 FcγRIIIa
# Assay: SPR (Biacore)
# T7 sequence (P08637 17-208 limits assumed): as the sequence (P08637 17-208 F176V limits assumed) above, with V160F counted along it
Binder,binding result,Fold FcγRIIIaF
B4,no binding,
B6,no binding,
B7,no binding,
B12,,6.32 fold

# Target: T4, human FcγRIIb receptor protein (R&D …)
# Assay: Biacore SPR ('according to the data herein')
# Protocol: (§1) Variants were screened for receptor affinity using Biacore™ technology, also referred to as Biacore herein, a surface plasmon resonance (SPR) based technology for studying biomolecular interactions in real time. SPR measurements were performed using a Biacore 3000 instrument (Biacore, Piscataway, N.J.). A protein A/G (Pierce Biotechnology) CM5 biosensor chip (Biacore) was generated using a standard primary amine coupling protocol. All measurements were performed using HBS-EP buffer (10 mM HEPES pH 7.4, 0.15 M NaCl, 3 mM EDTA, 0.005% vol/vol surfactant P20, Biacore). Antibodies at 20 nM or 50 nM in HBS-EP buffer were immobilized on the protein A/G surface and FcγRs were injected. After each cycle, the surface was regenerated by injecting glycine buffer (10 mM, pH 1.5). Data were processed by zeroing time and response before the injection of FcγR and by subtracting appropriate nonspecific signals (response of reference channel and injection of running buffer). Kinetic analyses were performed by global fitting of binding data with a 1:1 Langmuir binding model using BIAevaluation software (Biacore).
row,Binder,Kd
1,B3,~1500 nM

# Target: T4, human FcγRIIb receptor protein (R&D …)
# Assay: Biacore SPR, antibody captured on protein A/G, FcγR injected
# Protocol: as §1
row,Binder,improvement in affinity relative to WT IgG1
1,B8,> 2 orders of magnitude

# Target: T1, human FcγRIIb on the cell surface …
# Assay: flow cytometry on FcγRIIb-transfected HEK293T cells
# Remark: another data set of the same source
row,Binder,EC50 (read off the curve)
1,B2,~30 ng/mL
2,B5,~10 ng/mL
3,B15,~10 ng/mL
4,B13,~10 ng/mL

# Target: T1, human FcγRIIb on the cell surface …
# Assay: flow cytometry on HEK293T cells transfected with human FcγRIIb, PE anti-human Fab detection
row,Binder,fold EC50 relative to WT IgG1
1,B8,~320 fold
